Residue numbers refer to the chain shown, from its start.
What was measured:
[1] = target: T1, mouse ICOS ligand (mouse, UniProt Q9JHJ8 47-279, limits assumed); test: mICOSL neutralisation assay (lower right panel): blocking of mICOSL binding to its CHO-expressed receptor, absorbance at 450 nm
T1 construct: it may be the same Fc chimera as m48; also called mICOSL
T1 sequence (looked up): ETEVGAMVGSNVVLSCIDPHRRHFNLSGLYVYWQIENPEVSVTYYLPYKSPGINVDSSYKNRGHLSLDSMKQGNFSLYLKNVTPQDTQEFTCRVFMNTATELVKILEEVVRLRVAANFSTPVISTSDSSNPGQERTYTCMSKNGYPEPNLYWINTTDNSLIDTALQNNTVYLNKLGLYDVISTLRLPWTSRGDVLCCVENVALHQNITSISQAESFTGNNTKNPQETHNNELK

[2] = target: T2, human ICOS ligand (human, UniProt O75144 19-258, limits assumed); test: hICOSL neutralisation assay (lower left panel): blocking of hICOSL binding to its CHO-expressed receptor, absorbance at 450 nm
T2 construct: also called hICOSL
T2 sequence (looked up): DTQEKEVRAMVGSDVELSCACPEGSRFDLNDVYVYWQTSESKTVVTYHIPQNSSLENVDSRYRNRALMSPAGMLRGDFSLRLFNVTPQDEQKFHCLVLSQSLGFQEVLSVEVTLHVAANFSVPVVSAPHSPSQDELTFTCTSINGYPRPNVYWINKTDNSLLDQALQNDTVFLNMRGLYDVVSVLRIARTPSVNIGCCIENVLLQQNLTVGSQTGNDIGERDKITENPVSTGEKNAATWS

[3] = target: T3, human Tumour Necrosis Factor alpha (human, UniProt P01375 77-233); test: BLI, Octet RED96, biotinylated hTNF-α on streptavidin sensors, top concentration 1 µM
T3 construct: Amine-coupled to the chip for BIAcore, biotinylated on streptavidin sensors for Octet, coated at 1 µg/ml for ELISA; also called hTNFα; rhTNFα

[4] = target: T4, human serum albumin (human, UniProt P02768 25-609); test: binding ELISA on human serum albumin (HSA), OD 450
T4 construct: also called HSA

[5] = target: T3, human Tumour Necrosis Factor alpha; test: binding ELISA on human TNF-alpha, OD 450
[6] = target: T5, Rat TNFα (rat, UniProt P16599 80-235); test: cross-reactivity binding, B of B/N; - denotes no binding/neutralisation activity observed
T5 sequence (looked up): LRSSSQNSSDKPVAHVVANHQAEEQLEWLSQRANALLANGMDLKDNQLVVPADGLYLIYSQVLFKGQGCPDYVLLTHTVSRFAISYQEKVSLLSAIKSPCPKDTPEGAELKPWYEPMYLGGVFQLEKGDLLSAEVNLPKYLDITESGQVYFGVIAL

[7] = target: T6, Mouse TNF-alpha (mouse, UniProt P06804 80-235); test: as above
T6 construct: also called mouse TNFα
T6 sequence (looked up): T5 sequence (looked up) with A22V, I58V, S91N, I96V, M117I, L130Q, I143F, T144A

[8] = target: T7, Human TNF-β (human, UniProt P01374 35-205); test: as above
T7 construct: also called human TNFB
T7 sequence (looked up): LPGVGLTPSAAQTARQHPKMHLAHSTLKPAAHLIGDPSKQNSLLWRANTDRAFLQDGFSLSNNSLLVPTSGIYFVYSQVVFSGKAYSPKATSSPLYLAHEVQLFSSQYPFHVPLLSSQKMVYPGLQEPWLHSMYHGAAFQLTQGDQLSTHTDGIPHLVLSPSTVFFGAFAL

[9] = target: Pig TNFα (pig, UniProt P23563 77-232); test: as above
[10] = target: T8, Rabbit TNFα (rabbit, UniProt P04924 80-235, limits assumed); test: as above
T8 sequence (looked up): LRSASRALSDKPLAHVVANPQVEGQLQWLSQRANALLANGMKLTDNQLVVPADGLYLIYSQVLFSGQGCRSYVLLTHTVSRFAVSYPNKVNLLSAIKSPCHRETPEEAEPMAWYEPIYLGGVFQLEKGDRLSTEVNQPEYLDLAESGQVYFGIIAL

[11] = target: T3, human Tumour Necrosis Factor alpha; test: binding ELISA on 1 µg/ml hTNF-α, absorbance at 450 nm
[12] = target: T3, human Tumour Necrosis Factor alpha; test: binding ELISA on TNFα (Anti-TNF NAR Dimers Binding ELISA, post dialysis), absorbance at 450 nm
[13] = target: T3, human Tumour Necrosis Factor alpha; test: kinetics on hTNFα; instrument (BIAcore T200 or Octet) not stated for this column

T3 sequence (P01375 77-233 limits assumed): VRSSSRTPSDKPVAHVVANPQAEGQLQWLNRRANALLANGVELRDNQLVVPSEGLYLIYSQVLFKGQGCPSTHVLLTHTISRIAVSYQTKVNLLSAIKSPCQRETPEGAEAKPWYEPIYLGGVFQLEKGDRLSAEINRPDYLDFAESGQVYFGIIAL
Sequence of Pig TNFα (P23563 77-232 limits assumed): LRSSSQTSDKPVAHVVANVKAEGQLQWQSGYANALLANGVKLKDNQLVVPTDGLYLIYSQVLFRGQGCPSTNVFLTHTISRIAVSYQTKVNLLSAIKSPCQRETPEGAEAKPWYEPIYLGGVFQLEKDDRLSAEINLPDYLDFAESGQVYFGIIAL

B1: VNAR-TNFR1 Fc bi-functional construct, Format 2: anti-mICOSL VNAR (CC3) (Fc fusion)
chain: TRVDQTPRTATKETGESLTINCVLTDTEYGLFSTSWFRKNPGTTDWERMSIGGRYVESVNKGAKSFSLRIKDLTVADSATYYCKALGWWPPAFPHWYDGAGTVLTVN
IC50 (read off the curve) [1]: ~0.2 µg/mL

B2: VNAR-TNFR1 Fc bi-functional construct, Format 4: anti-hICOSL VNAR (2D4) (Fc fusion)
chain: TRVDQTPRTATKETGESLTINCVLTDTDYGLFSTSWFRKNPGTTDWERMSIGGRYVESVNKGAKSFSLRIKDLTVADSATYYCKAFTWPWEWPDRWFRPWYDGAGTVLTVN
IC50 (read off the curve) [2]: ~0.4 µg/mL

B3: BB10 (VNAR)
VNAR: TRVDQSPSSLSASVGDRVTITCVLTDTSYPLYSTYWYRKNPGSSNKEQISISGRYSESVNKGTKSFTLTISSLQPEDFATYYCRAMGTNFWTGDGAGTKVEIK
Kd [3]: > 1000 nM

B4: TNF S17-Quad-X™ (Fc fusion)
chain: ASVNQTPRTATKETGESLTINCVLTDTHAKVFTTSWFRKNPGTTDWERMSIGGRYVESVNKGAKSFSLRIKDLTVADSATYICRAGGYLSQPRVYWDVYGAGTVLTVNGGGGSGGGGRTEPRGPTIKPCPPCKCPAPNLLGGPSVFIFPPKIKDVLMISLSPIVTCVVVDVSEDDPDVQISWFVNNVEVHTAQTQTHREDYNSTLRVVSALPIQHQDWMSGKEFKCKVNNKDLPAPIERTISKPKGSVRAPQVYVLPPPEEEMTKKQVTLTCMVTDFMPEDIYVEWTNNGKTELNYKNTEPVLDSDGSYFMYSKLRVEKKNWVERNSYSCSVVHEGLHNHHTTKSFSRTPGKGGGGSGGGGSGGGGSGGGGSGAHSASVNQTPRTATKETGESLTINCVLTDTHAKVFTTSWFRKNPGTTDWERMSIGGRYVESVNKGAKSFSLRIKDLTVADSATYICRAGGYLSQPRVYWDVYGAGTVLTVN
notes: S17, mouse IgG2a Fc and S17 in one chain; also called S17-Fc-S17; S17-Fc-S17 (Quad-X™)
binding result [4]: no binding (tested: 5 µg/ml)
binding result [5]: no binding (tested: 5 µg/ml)

B5: TNF VNAR D1 (VNAR)
VNAR: ARVDQTPQTITKETGESLTINCVLRDSHCATSSTYWYRKKSGSTNEESISKGGRYVETVNSGSKSFSLRINDLTVEDSGTYRCASECQYGLAEYDVYGGGTVVTVNA
notes: Nurse shark VNAR single domain; also called VNAR D1 (wt); VNAR anti-hTNFa-D1
binding result [6]: no binding
binding result [7]: no binding
binding result [8]: no binding
binding result [9]: no binding
binding result [10]: no binding

B6: SoloMER™ VNAR D1-v4 (VNAR)
VNAR: ARVDQSPSSLSASVGDRVTITCVLRDSHCATSSTYWYRKKPGSTNEESISKGGRFSGSGSSGSKSFTLTISSLQPEDFATYYCASECQYGLAEYDVFGQGTKVEIKH
notes: Humanised D1 with His tag
EC50 (read off the curve) [11]: ~0.1 µg/mL

B7: TNF VNAR DIMER D1-D1 (VNAR)
chain: ARVDQTPQTITKETGESLTINCVLRDSHCATSSTYWYRKKSGSTNEESISKGGRYVETVNSGSKSFSLRINDLTVEDSGTYRCASECQYGLAEYDVYGGGTVVTVNGGGGSGGGGGSGAHSARVDQTPQTITKETGESLTINCVLRDSHCATSSTYWYRKKSGSTNEESISKGGRYVETVNSGSKSFSLRINDLTVEDSGTYRCASECQYGLAEYDVYGGGTVVTVNAAAHHHHHHGAAESKLISEEDL
EC50 (read off the curve) [12]: ~0.009 µg/mL

B8: TNF VNAR D1-BA11-B4 (VNAR)
chain: ARVDQTPQTITKETGESLTINCVLRDSHCATSSTYWYRKKSGSTNEESISKGGRYVETVNSGSKSFSLRINDLTVEDSGTYRCASECQYGLAEYDVYGGGTVVTVNGGGGSGGGGSGGGGSGGGGSGAHSTRVDQSPSSLSASVGDRVTITCVLTDTSYPLYSTYWYRKNPGSSNKEQISISGRYSESVNKGTKSFTLTISSLQPEDSATYYCRAMSTNIWTGDGAGTKVEIKGGGGSGGGGSGGGGSGGGGSGAHSARVDQTPQTITKETGESLTINCVLRDSNCALSSMYWYRKKSGSTNEESISKGGRYVETVNSGSKSFSLRINDLTVEDSGTYRCKVYIPCIDELVYMISGGTSGPIHDVYGGGTVVTVNHHHHHHHEQKLISEEDL
notes: Tandem VNAR trimer with anti-HSA BA11 in the middle, His and Myc tags
koff [13]: ~0.0006 s⁻¹

Source: patent publication US20250346659A1 (ELASMOGEN, published 2025)
